Assay: yeast display, Sf9 membrane polyspecificity reagent, FACS + sequencing; frameworks hold sequencing errors
Summary of the method: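 A nanobody's polyreactivity label depends on the gate it was sorted from. Yeast display cells were stained with 10% biotinylated, detergent-solubilized Sf9 membrane reagent for 1 hour at 4 °C, enriched on streptavidin microbeads and sorted by FACS. The low and high (top ~1%) gates were set on anti-HA fluorescence for expression and streptavidin fluorescence for reagent binding.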

| Sequence | polyreactivity (PSR sort gate) |
| --- | --- |
| QVQLVESGGVLVQAGGSLRLSCAASGSIFDSNAMGWYRQAPGKERELVAAISWSGSRTYYADSVKGRFTISRDYAKNTVYLQILSLKPEDTAVYYCAALVRRYGKYDYWGQCTQVTVSS | high polyreactivity |
| QVQLVESGGGLVQAGGSLRLICAASGSIFDRYVMGWYRQAPGKERELVAAITTSGDGTYYADSVKGRFTISRDNAKNTVYLQMNSLKPEDTAVYYCAAVRRSWKYSTSDYWGQGTQVTVSS | low polyreactivity |
| QVQLVDSRGGLDQAGGSHRLSCAASGSTFSTNVMGWYRQAPGKERELVAAISISGTTTYYADSVKGRFTISRDNAKNTVYLQMNSLKPEDTAVYYCAAENYVAWTWHDYWGQGTQVTVSS | high polyreactivity |
| QVQLVESGGGLVQAGGSLRLSCAASGRIFQGYAMGWYRQAPGKERELVAAITRSGGSTYYADSVKGRFTISRDNAKNTVYLQMNSLKPEDTAVYYCAASHYGLLEYWGQGTQVTVSS | low polyreactivity |
| QVQLVESGGGLVQAGGSLRLSCAASGIIFYPYAMGWYIQAPGKERELVAGISSSGGSTYYADSVKGRFTISRDNAKNTVYLQMNSLKPEDTAVYYCAVGGERGARIGSNHRGSRYDYWGQGTQVTVSS | high polyreactivity |
| QVQLVESGGGLVQAGGSLRLSCAASGSIFGYYPMGWYRQAPGKERELVAAITSGGNTYYADSVKGRFTISRDNAKNTVYLQMNSLKPEDTAVYYCNAVWRTRDYDYWGQGTQVTVSS | low polyreactivity |
| QVQLVESGRGLVQAGCSLRLSCAASGSIFEWYAMGWSRQAPGKEMELVADITYNGGSTYYADSVKGRFTISRDNAKNTVYLQMNSLKPEDTAVYYCAADYFVQVPDYYYASEYGYWGQGTQVTVSS | low polyreactivity |
| QVQLVESGGGLVQAGGSLRLSCAASGGTFSRNAMGWYRQAPGKERELVAAITWSGTRTYYADSVKGRFTISRDNAKNTVYLQMNSLKPEDTAVYYCATKGRRSADDTLLDYWGQGTQVTVSS | high polyreactivity |
| QVQLVESGGGLVQAGGSLRLSCAASGYTFPIYAMGWYRQAPGTERELVAGISKNGGSTYYADSVKGRFTISRDNAKNTVYLQMNSLKPVDTAVYYCNASAWGRPYYLGSYFVYPGYEYWGQGTEVTVSS | low polyreactivity |
| QVQLVESRGGLVQAGGSLRLSCAASGGTFSLNAMGWYRQAPGKERELVAANSKRSSTTYYADSVKGRFTISRDNAKNTVYLQMNSLKPEDTAVYYCAARVLRSRKPGPGYDYWGQGTQVTVSS | high polyreactivity |
| QVQLVESGGGLVQAGGSLRLSCAASGSTFSYYAMGSYRQAPGKERELVADISWSGGSTYYADSVKGRFTISRDNAKNTVYLQMNSLKPEDTAVYYCAARGYVRWYNRYDYWGQGTQVTVSS | low polyreactivity |
| QVQLEESGGGLVQAGGSLRLSCAASGSTLNYYAMGWYRQAPGKERELVAAITWSGGSTSYADSVKGRFTISRDKAKNTVYLQMNSLKQEDTAVYYCATDFPTVQLYDTDWLSSDMGYWGQGTQVTVSS | low polyreactivity |
| QVQLVESGGGLVQAGGSLRLSCAASGRTFVYNAMGWYRQAPGKERELVAAISSDGASTYYADSVKGRFTISRDNAKNTVYLQMNSLKPEDTAVYYCAADFSYYSYEHYYWGQGTKVTVSS | low polyreactivity |
| QVQLVESGGGLVQAGGSLRLSCAASGNTFRWNAMGWYRQAPGKERELVAGISIDDGSNYADSVKGRFTISRDNAKKTVYLQMNSLTPEDTAVYDCNRDWALYVFGRHYHAYYSWGQGTHVTVSS | low polyreactivity |
| QVQLEESGGCLVQAGGSLRLSCAASGSIFRIYAMGWYRQAPGKEREFVAAISSRGGRTYYAYSVKGRFTISRDNAKNTVYLQMNSLKPEDTAVYYCNARATRGSYYEYEYWGQGTQVTVSS | high polyreactivity |
| QVQLVESGGGLVQAGGSLRLSCAASGSTFNGYTMGWYRQAPGKEREFVATITFSDGSTYYADSVKGRFTISRDNAKNTVYLQMNSLKPEDTAVYYCNVDSPIGYDYWGQGTQVTVSS | low polyreactivity |
| QVQLVESGGGLVQAGGSLRLICAASGSTYYDYAMGWYRQAPGKERELVAGISRSGGSTYYADSVKGRFTISRDNAKNSVYLQMNSLKPEDTAVYYCAARNYRYLYRIEYWGQGTQVTVSS | high polyreactivity |
| QVQLVESGGGLVKEGGSLRLSSAASGSTNRYYAMGLYRQAPGKERELVAGITTGGGRTYYADSEKGRFTISRDNAKYTVYLQMTSLKPEDTAVYYCAADRLSHYWYRISYDYWGQCTQVTVSS | high polyreactivity |
| QVQLVESGGGIVQAGGSLRLSCAASGRTFKSNAMGWSIQAPGKERELVAAISRSGVRTDYADSVKGRFTISRDNANITVYLQMNSLKPEDTAVYYCADRTWNRRSPYDYWGQGTQVTVSS | high polyreactivity |
| QVQLVESGGGLVQAGGSLRLSCAASGFTFRYYVMGWYRQAPGNEREFVAAITWADGSTFYAVSVKGRFTISRDKAKNTDYLHMNSLKPEDTAVYYCAADYSRTYRAYDYWGQGTQVTVSS | low polyreactivity |
| QDQLVESGGGLVQAGGSLRISCAASGSIFAWYAMAWYRESPGKERELVATITWSGGSTYYADSVKGRFTISRDNAKNTVYLQMNSLKPEDTAVYYCAAEVVGIWYDLWYQGDYWGQGTQVTVSS | low polyreactivity |
| QVQLVESGGGLVQAGGSLRLSCAGSGSTFGRYAMGWYRQAPGKERELVAAITSDTGNTNYADSVKGRFTISRDNAKNTVYLQMNSLKPEDTAVYYCAAATFWVLWGHVIGNYDSWGQGTQVTVSS | low polyreactivity |

| Sequence | polyreactivity (PSR sort gate) |
| --- | --- |
| QVHLVESGGGLVQAGGSLRLSCAASGSTFSGYAMGWYRQAPGKERELVATITRRGGNTYYADSLKGRFTISRDNAKNTVYLQMNSLKPEDTAVYYCAKDGRVHSPYDYWGQGTQVTVSS | low polyreactivity |
| QVRLVESGGGLVQAGGSLRLSCAASARILPYYPMGWYRQAPGKERELVAAISWSGGRTYYADSVKGRFTISRDNAKNTVYLQMNSLKPEDTAVYYWATRRVTHVPGSSRYDYWGQGTQVTVSS | low polyreactivity |
| QVQLVESGGGLVQAGGSLRLICAASGRTYHGYAMGWYRQAPGKERELVAAITSSGARTYYADSVKGRFTLSRDNAKKTVYLQMNSLKPEDTAVYYCAVNWLRGMDWGQGTQVTVSS | high polyreactivity |
| QVQLLESGGGLVQAGASLRLSCAASGSICWVYDMGWYRQAPGKERELVAAISQSGGSTYYADSVKGRFTISRDNAKNTVYFQMNSLKPEDTAGYYCAAYVRGQNYDYWGQGTQVTVSS | high polyreactivity |
| QVQLVESGGGLVQAGGSLRLSCAASGRTSGINAMGWYRQSPGKERELVAAISSGGRTYYADSVKGRFTISRDNAKNTVYLQMNSLKPEDTAVYYCAAVIHWSLYRRMEYWGQGTQVTVSS | high polyreactivity |
| QVQLVESGGGLVQAGGSLRLSCDASGNIFSDYTMGWYRQAPGKERELVAAISGDGGTTYYADSVKGRFTISRDNAKNTVYLQMNSLNPEDTAVYYCAADGYYDAYDQFFIVYYEYDYWGQGTQVTVSS | low polyreactivity |
| QVQLVESGGGLVQAGGSLRLSCAASGLIFHGYAMGWYRQAPGKERELVAVITKNGGRTYYADSVKGRFTISRDTAKNTVYLQMNSLKPEDTAVYYCATGKNYWRGYEYWGQGTQVTVSS | high polyreactivity |
| QVQLVESGGGLVQAGGSLRLSCAASGFIFFGEYVMGWYRQAPGKEREFVAAISRSSATTYYADSVKGRFTISRDTAKNTVYLQMNSLKPEDTAVYYCNAGDLGRRWGMDYWGQGTQVTVSS | low polyreactivity |
| QFQLVESCRGLVQAGGSLRLSCAASGFTFRANGMGWYRQAPGKERELVATITSGGTTNYADSVKGRFTISRDNAKNTVYLQMNSLKREDTAVYYCAKRFGPAYFRLYDYWGQGTQVTVSS | low polyreactivity |
| QVQLVDSGGGLVQAGGSLRLSCAASGNTFRYYVMGWYRQAPGKERELVAASTSSGGNTYYADSVKGRFTISRDNAKNTVYLQMNSLKPEDTAVYYCAASYDINYYFSDYNYWGQGTQVTVSS | high polyreactivity |
| QVQLVESGGGLVQAGGSLRLSCAASGSIFYVYAMGWYRQAPGKERELVAAINTAGGSTFYADSVKGRFTISRDNAKNPVSLQMTSLKPEETAVYYCAAERYRYRSTDTMGYWGQGTQVTVSS | low polyreactivity |
| QVQLVESGGGLVQAGGSLRLSCAASGFIFYLNVMGWYRQAPGKERELVATITSGGSTNYADSVKGRFTISRDNAKNTVYLQMNSLKPEDTAVYYCAARRGKSYYWYNYWGQGTQVTVSS | high polyreactivity |
| QVQLVESGGGLVQAGGSLRLSCAASGRTFVYYAMGWYRPAPGKERELVAAISRSGSTYYADSVKGRFTISRDNAKNTVYLQMNSLKPEDTAVYYCARPGGPDRTSSPYPYPYGYWGQGTQVTVSS | low polyreactivity |
| QVQLVESGGGLVQAGGSLRLSCAASGLTFSAYAMGWYRQAPGKERELVAAITTGGGRTYYADSVKGRFTISRDNAKNTVYLQMNSLKPEDTAVYYCNTLRAYWTYHFYGAVRDGYDYWGQGTKVTVSS | low polyreactivity |
| QVQLVESGGGLVQAGGSLRLSCAASGFTFSSNAMGWYRQAPGKEREFVAAISFNSTSTYYADSVKGRFKISRDNAKNTVYLQMNSLKPEDTAVYYCAADVPRVQSEPEYDYWGQGTQVTVSS | low polyreactivity |
| QVQLVESGGGLVQAGGSLRLSCAASGITLYDNAMGWYRQAPGKERELVAAINVNDVSTYYADSVKGRFTISRDNAKNTVYLQKNSLKPEDTAVYYCAADSLYYGIGYWVVRYDYWGQGTQVTVSS | low polyreactivity |
| QVQLVESGRALVQAGGSLRLSCAASGNTFEDYAMGWYRQAPGKERELVAAINSGGSTNYADSVKGRFTISRDNAKNTVYLQLNSLKPEDTAVYYCAAEPGEGFDYWGQGTQVTVSS | low polyreactivity |
| QVQLVESGGGLVQAGGSLRLSCAASGSTFVGYFMGWYRQAPGKERELVAAITKIGGSTYYADSVKGSFTISRDNAKNNVYLQMNSLKPEDTAVYYCARTRSRWRYPIFYYWGQGTQVTVSS | high polyreactivity |
| QVQLVESGGGLVQAGGSLRLSCAASGSIFQYYAMGWYRQAPGKERELVAAISSAGSTKYADSVKGRFTISRDNAKNTVYLQMNSLKPEDTAVYYCAARDPSRHARRAYDYWGQGTQVTVSS | low polyreactivity |
| QVQLVESGGGLVQAGGSLRLSCAASGSIYFTNAMGWYRQAPGKERELVAAIRWRGDRTYYADSVKGRFTISRDNGKNTVYLQMNSLIPEDTAVYYCAVAPSYKITEDSWGQGTQVTVSS | low polyreactivity |
| QVQLVESGGGLVQAGGSLRLSCAASGRIFGTNAMGWYRQAPGKERELVAAISRSGGSTYYADSVKGRFTISRDNSKNTVYLQMNSLKPEDTAVYYCATDGRHTYYYWGQGTQVTVSS | high polyreactivity |

Source: the nanobody polyreactivity screen of Harvey et al. (2022)
